Positions count from the first letter of the chain named. Numbers in names are those of the source.
B1: threonine deaminase (Ilv1), wild-type (Saccharomyces cerevisiae S288C) (protein)
chain: LHSELKLDELQTDNTPDYVRLVLRSSVYDVINESPISQGVGLSSRLNTNVILKREDLLPVFSFKLRGAYNMIAKLDDSQRNQGVIACSAGNHAQGVAFAAKHLKIPATIVMPVCTPSIKYQNVSRLGSQVVLYGNDFDEAKAECAKLAEERGLTNIPPFDHPYVIAGQGTVAMEILRQVRTANKIGAVFVPVGGGGLIAGIGAYLKRVAPHIKIIGVETYDAATLHNSLQRNQRTPLPVVGTFADGTSVRMIGEETFRVAQQVVDEVVLVNTDEICAAVKDIFEDTRSIVEPSGALSVAGMKKYISTVHPEIDHTKNTYVPILSGANMNFDRLRFVSERAVLGEGKEVFMLVTLPDVPGAFKKMQKIIHPRSVTEFSYRYNEHRHESSSEVPKAYIYTSFSVVDREKEIKQVMQQLNALGFEAVDISDNELAKSHGRYLVGGASKVPNERIISFEFPERPGALTRFLGGLSDSWNLTLFHYRNHGADIGKVLAGISVPPRENLTFQKFLEDLGYTYHDETDNTVYQKFLKY
notes: recombinant Ilv1 lacking the N-terminal 45 amino acid residues (mitochondrial localization signal), expressed in E. coli BL21(DE3)
B2: threonine deaminase (Ilv1), H480Y variant (Saccharomyces cerevisiae S288C; H480Y) (protein)
chain: B1 chain with H435Y
notes: as for B1

Experiments:
[1] = target: T1, threonine deaminase (Ilv1), wild-type (Saccharomyces cerevisiae, UniProt P00927); assay: biochemical; conditions: read-out: GDH-coupled TD activity assay with purified Ilv1; 1.8-fold activation at 5 mM Va
T1 sequence (P00927 46-576): B1 chain

[2] = target: T1, threonine deaminase (Ilv1), wild-type; assay: GDH-coupled NADH oxidation assay of TD activity with purified recombinant Ilv1; format: biochemical
[3] = substrate: C[C@@H](O)[C@H](N)C(=O)O; assay: purified protein; format: biochemical, Saccharomyces cerevisiae; conditions: pyridoxal-5'-phosphate

Molecule	fold induction at 5000 µM [1]	IC50 [2] [µM]	K0.5 [3] [mM]	kcat [3] [s⁻¹]	kcat/Km [3] [M⁻¹ s⁻¹]
CC(C)[C@H](N)C(=O)O [valine]	1.8				
CC[C@H](C)[C@H](N)C(=O)O [isoleucine]		270 ± 9			
B1			40 ± 2.2	75 ± 4.1	1870
B2			42 ± 2.4	75 ± 3.6	1780

Source: publication PMC8904041, “High-Level Production of Isoleucine and Fusel Alcohol by Expression of the Feedback Inhibition-Insensitive Threonine Deaminase in Saccharomyces cerevisiae” (Applied and Environmental Microbiology, 2022)
